These are literature values, as cited in paper PMC2820514.

The target of the data set is CaMKII monomer (UniProt Q9UQM7).

For CaMKII monomer (from UniProt Q9UQM7), the Kd (commonly the constant that tells how readily two partners part at equilibrium) was 1.3 µM.
